Experimental findings from article PMC4964982 (2016) are described below.

Assay in all cases: TR-FRET competition with SRC3 fragment
Background: In TR-FRET formats the signal depends on donor and acceptor labels being close together.

The target in one assay is T1, SRC2-SP4 687-697 (Homo sapiens, UniProt Q15596, staple 3-7).
T1 chain: HK[S5]LHR[S5]LQDS

Another assay addresses T2, SRC2-WT 687-697 (Homo sapiens, UniProt Q15596).
T2 chain: HKILHRLLQDS

The target of another assay is T3, PFE-SP2 687-697 (Homo sapiens, UniProt Q15596, staple 3-7; also: R to Q substitution, place not given here).
T3 chain: HK[S5]LHR[S5]LQDS

Bridge positions count the residues as written; N and C are the ends. Square brackets hold non-standard residues; d marks the D form. Ends that are not written are not given here. S5 = C=CCCC[C@](C)(N)C(=O)O

B1: ERα LBD (protein)
chain: NSLALSLTADQMVSALLDAEPPILYSEYDPTRPFSEASMMGLLTNLADRELVHMINWAKRVPGFVDLTLHDQVHLLECAWLEILMIGLVWRSMEHPGKLLFAPNLLLDRNQGKCVEGMVEIFDMLLATSSRFRMMNLQGEEFVCLKSIILLNSGVYTFLSSTLKSLEEKDHIHRVLDKITDTLIHLMAKAGLTLQQQHQRLAQLLLILSHIRHMSNKGMEHLYSMKCKNVVPLYDLLLEMLDAHRLHAPTS
As usually defined, the IC50 is the point on the concentration scale where inhibition reaches its midpoint. A lower IC50 goes with greater potency. With B1, the IC50 with SRC2-SP4 687-697 was 390 nM; in the assay with SRC2-WT 687-697, 1100 nM; with PFE-SP2 687-697 it was 760 nM.
